Values belong to the molecule of their own block, whether it stands above or below them. Where no end group is shown, it is not given here.
Tests used:
Assay type in all cases: biochemical
ATR = target: T1, ATR (Homo sapiens, UniProt Q13535); test: In vitro kinase assay, ATR with GST-peptide / GST-fusion substrates; settings: for Relative Phosphorylation (%) ATR: GST-peptide substrate, relative to the p53ser15 site; for phosphorylation by ATR in vitro (in words): larger GST-fusion fragments or full-length proteins as substrates
T1 construct: made in house; host or cells: 293T cells, transient transfection with pBJF-FRPwt, anti-FLAG M2 immunoprecipitate
Experimental: (§1) FIGS. 1A, 1B, and 1C. Phosphorylation of GST-p53 mutant peptides (amino acids 9-21) by ATM, ATR, and DNA-PK in vitro. In vitro kinase assays with immunoprecipitated, transfected flag-tagged ATM (A) or ATR (B) or purified DNA-PK (C) were performed with GST-p53 peptides containing the amino acid substitutions indicated. The amount of 32P-labeled GST-peptides was quantitated with a PhosphorImager and was normalized for each of the kinases to the level of phosphorylation of wild-type GST-p53.
(§2) FIGS. 2A, 2B, and 2C. Phosphorylation of candidate targets of by ATM, ATR and DNA-PK in vitro. GST-peptides containing the putative target sequences were used as substrates for the kinase assay.
Transfection and Kinase Activity Assays. 293T cells were transiently transfected with 10 μg of either pcDNA-FLAG-ATMwt, pcDNA-FLAG-ATMkd, pBJF-FRPwt or pBJF-FRPkd (Cliby et al., EMBO J., 17:159, 1998) using calcium phosphate and harvested two days later. Cells were lysed through sonication in TGN buffer [50 mM Tris (pH 7.5), 50 mM glycerophosphate, 150 mM NaCl, 10% glycerol, 1% Tween 20, 1 mM NaF, 1 mM NaVO4, 1 mM PMSF, […] Pepstatin A, 5 μg/ml leupeptin, 10 μg/ml Aprotinin and 1 mM DTT] as described (Brunn et al., Science, 277:99-101,1997). After centrifugation at 13,000 ×g, 2 mg of extract were incubated with mouse IgG and protein A/G sepharose beads (Calbiochem). FLAG-tagged proteins were then immunoprecipitated with anti-FLAG M2 monoclonal antibody (Eastman Kodak Company) and protein A/G sepharose beads. Immunoprecipitates were washed twice with TGN buffer, once with 100 mM Tris (pH 7.5) plus 0.5 M LiCl, and twice with kinase buffer [10 mM Hepes (pH 7.5), 50 mM glycerophosphate, 50 mM NaCl, 10 mM MgCl2, 10 mM MnCl2, 5 μM ATP, and 1 mM DTT]. Kinase reactions were initiated by resuspending washed beads in 30 μl of kinase buffer containing 10 μCi [γ-^32P]ATP and 1 μg GSTp531-101 and incubated for 30 minutes at 30° C. Proteins were electrophoretically separated by SDS-polyacrylamide gel electrophoresis, transferred to nitrocellulose, and analyzed on a PhosphorImager. FLAG-tagged proteins and GSTp531-101 were subjected to immunoblotting with either anti-FLAG M2 antibody or monoclonal antibodies directed towards the NH2-terminus of p53 (Ab-2 and Ab-6, Calbiochem) as described (Siliciano et al., Genes Dev., 11:3471, 1997).
Phosphorylation of Ser^15 of p53 by ATM and ATR/FRP1 in vitro. […] Proteins from each reaction were separated by SDS polyacrylamide gel electrophoresis (7% gel), transferred to nitrocellulose, and analyzed either on a PhosphorImager or by immunoblotting. Amounts of FLAG-tagged ATM or ATR in each kinase reaction were measured by immunoblotting with anti-FLAG M2 (top panel) and amount of [γ^32P]phosphate incorporated into ATM or ATR during the reaction (lower panel). […] An upper immunoreactive band represents phosphorylated GSTp53 fusion protein. The same exposures were used for ATM, ATR/FRP1 and corresponding substrate proteins.
(§3) Plasmids and GST-fusion protein production. For GST fusion peptide expression vectors, complementary oligonucleotides encoding desired peptides (14 amino acids) were cloned into the BamHI/SmaI site of pGEX-2T (Pharmacia). The constructs were confirmed by restriction enzyme digests and DNA sequencing. To construct the larger GST-p95 (327-391) protein fragment, p95 DNA encoding amino acids 327-391 was amplified by PCR with Pfu polymerase using the following primers: 5′ sense,
In vitro kinase assays and immunoprecipitation. […] Cleared supernatants were immunoprecipitated with anti-Flag M2 antibody and protein A/G agarose, the beads were washed with TGN buffer followed by TGN buffer plus 0.5 M LiCl, and two washes with kinase buffer [20 mM HEPES (pH 7.5), 50 mM NaCl, 10 mM MgCl2, 1 mM dithiothreitol (DTT) and 10 mM MnCl2]. […] ATP and […] of GST-fusion substrate (GST-p53:1-101), in varying concentration of Mn^2+. […]

ATM kinase = target: T2, ATM kinase (Homo sapiens, UniProt Q13315); test: In vitro kinase assay, ATM with GST-peptide / GST-fusion substrates; settings: for phosphorylation of GST-peptide substrate by ATM (in words): GST-conjugated 14 amino acid peptides; for Relative Phosphorylation (%) ATM: GST-peptide substrate, relative to the p53ser15 site; for phosphorylation by ATM in vitro (in words): larger GST-fusion fragments or full-length proteins as substrates;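 for all read-outs here: immunoprecipitated ATM incubated with [γ-32P]ATP at 30 °C for 20 min, substrates resolved by SDS-PAGE and radiolabel incorporation quantified by PhosphorImager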
T2 construct: The full-length cDNA encoding NH2-terminal, FLAG-tagged wild-type ATM; made in house; host or cells: 293T cells, transient transfection with pcDNA-FLAG-ATMwt, anti-FLAG M2 immunoprecipitate on beads
T2 sequence (Q13315 whole entry, the tested form may be a part): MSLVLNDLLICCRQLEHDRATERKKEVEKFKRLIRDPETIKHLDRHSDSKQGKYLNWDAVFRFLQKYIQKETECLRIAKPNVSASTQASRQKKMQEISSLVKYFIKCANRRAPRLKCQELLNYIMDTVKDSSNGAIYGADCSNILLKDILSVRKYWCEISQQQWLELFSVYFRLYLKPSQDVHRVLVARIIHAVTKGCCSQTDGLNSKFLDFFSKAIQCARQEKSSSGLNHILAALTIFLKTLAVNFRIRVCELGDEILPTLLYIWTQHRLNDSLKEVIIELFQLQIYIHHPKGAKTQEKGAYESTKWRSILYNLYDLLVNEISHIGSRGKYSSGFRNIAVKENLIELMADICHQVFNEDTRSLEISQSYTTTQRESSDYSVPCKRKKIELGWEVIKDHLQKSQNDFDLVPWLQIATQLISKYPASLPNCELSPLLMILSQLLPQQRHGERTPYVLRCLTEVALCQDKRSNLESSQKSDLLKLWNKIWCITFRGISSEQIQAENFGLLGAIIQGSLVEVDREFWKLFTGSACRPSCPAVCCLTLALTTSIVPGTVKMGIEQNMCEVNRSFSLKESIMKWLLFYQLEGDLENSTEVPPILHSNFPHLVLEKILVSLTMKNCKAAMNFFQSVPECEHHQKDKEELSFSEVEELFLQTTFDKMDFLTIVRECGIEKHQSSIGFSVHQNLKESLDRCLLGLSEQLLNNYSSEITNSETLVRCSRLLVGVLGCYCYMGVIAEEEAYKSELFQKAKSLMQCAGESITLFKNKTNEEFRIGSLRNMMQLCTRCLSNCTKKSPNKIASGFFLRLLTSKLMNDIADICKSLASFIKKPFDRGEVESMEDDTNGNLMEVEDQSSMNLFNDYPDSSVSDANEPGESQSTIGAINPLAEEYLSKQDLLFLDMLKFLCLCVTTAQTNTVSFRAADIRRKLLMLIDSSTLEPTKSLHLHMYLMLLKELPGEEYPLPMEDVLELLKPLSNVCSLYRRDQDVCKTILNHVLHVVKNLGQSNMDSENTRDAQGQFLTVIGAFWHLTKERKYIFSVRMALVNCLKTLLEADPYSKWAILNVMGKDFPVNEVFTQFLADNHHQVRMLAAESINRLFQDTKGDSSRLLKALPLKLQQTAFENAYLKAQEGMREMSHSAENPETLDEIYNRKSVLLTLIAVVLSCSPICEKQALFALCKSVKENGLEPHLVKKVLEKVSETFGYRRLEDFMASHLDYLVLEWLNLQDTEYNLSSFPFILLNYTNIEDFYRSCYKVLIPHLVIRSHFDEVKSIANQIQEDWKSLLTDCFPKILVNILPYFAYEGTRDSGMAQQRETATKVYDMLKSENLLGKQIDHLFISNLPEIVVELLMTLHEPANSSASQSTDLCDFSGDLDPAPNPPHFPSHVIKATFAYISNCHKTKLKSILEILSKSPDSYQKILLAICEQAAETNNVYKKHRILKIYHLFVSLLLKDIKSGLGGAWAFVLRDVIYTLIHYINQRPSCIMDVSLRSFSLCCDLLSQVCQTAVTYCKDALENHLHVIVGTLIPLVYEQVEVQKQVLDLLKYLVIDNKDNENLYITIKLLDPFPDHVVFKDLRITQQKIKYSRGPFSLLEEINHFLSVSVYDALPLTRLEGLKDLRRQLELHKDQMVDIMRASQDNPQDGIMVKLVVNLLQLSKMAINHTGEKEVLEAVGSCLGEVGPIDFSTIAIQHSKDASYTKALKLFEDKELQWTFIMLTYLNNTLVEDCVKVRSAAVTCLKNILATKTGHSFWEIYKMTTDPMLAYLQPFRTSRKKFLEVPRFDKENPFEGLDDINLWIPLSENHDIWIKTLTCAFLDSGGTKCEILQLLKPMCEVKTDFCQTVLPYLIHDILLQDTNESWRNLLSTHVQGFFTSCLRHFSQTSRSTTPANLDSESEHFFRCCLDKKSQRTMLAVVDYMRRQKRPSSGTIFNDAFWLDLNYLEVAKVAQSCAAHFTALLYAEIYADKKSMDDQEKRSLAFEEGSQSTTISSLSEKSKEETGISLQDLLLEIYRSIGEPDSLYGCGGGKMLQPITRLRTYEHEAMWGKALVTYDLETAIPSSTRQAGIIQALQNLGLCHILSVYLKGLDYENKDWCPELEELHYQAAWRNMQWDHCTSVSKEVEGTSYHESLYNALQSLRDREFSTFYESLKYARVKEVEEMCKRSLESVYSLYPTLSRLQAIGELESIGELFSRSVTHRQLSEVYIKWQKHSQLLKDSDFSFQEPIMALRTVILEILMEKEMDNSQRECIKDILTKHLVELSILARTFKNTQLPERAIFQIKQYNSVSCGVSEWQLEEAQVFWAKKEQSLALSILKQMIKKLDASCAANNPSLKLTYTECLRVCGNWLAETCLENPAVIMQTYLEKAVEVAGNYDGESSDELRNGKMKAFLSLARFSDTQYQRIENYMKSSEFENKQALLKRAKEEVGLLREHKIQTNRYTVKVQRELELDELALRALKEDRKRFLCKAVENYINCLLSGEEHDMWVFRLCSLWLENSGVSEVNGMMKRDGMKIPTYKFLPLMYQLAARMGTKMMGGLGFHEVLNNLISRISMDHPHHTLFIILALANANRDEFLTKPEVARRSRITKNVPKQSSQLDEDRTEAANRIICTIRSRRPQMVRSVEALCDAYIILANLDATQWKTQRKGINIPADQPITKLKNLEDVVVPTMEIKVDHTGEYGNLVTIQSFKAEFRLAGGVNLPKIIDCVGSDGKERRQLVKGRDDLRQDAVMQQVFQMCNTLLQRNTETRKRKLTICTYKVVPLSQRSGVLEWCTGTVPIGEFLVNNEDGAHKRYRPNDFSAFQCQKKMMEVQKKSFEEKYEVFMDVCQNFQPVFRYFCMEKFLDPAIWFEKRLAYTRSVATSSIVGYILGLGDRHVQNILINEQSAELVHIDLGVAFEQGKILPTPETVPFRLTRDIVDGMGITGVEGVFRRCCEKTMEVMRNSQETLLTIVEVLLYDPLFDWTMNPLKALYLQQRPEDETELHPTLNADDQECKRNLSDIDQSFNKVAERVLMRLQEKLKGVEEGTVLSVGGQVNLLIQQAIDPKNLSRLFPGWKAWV

DNA-PK = DNA-PK (Homo sapiens, UniProt P78527); test: In vitro kinase assay, purified DNA-PK with GST-peptide / GST-fusion substrates; settings: for Relative Phosphorylation (%) DNA-PK: GST-peptide substrate, relative to the p53ser15 site
Experimental: as §1, §2, §3
In vitro kinase assays and immunoprecipitation. […] Cleared supernatants were immunoprecipitated with anti-Flag M2 antibody and protein A/G agarose, the beads were washed with TGN buffer followed by TGN buffer plus 0.5 M LiCl, and two washes with kinase buffer [20 mM HEPES (pH 7.5), 50 mM NaCl, 10 mM MgCl2, 1 mM dithiothreitol (DTT) and 10 mM MnCl2]. […] ATP and […] of GST-fusion substrate (GST-p53:1-101), in varying concentration of Mn^2+. The kinase reaction was conducted at 30° C. for 20 min and stopped by the addition of SDS-PAGE loading buffer. Proteins were separated on SDS-polyacrylamide gel electrophoresis (SDS-PAGE) and transferred to nitrocellulose. Radiolabeled proteins were visualized and quantitated on a Phosphorimager (Molecular Dynamics). Use of equivalent amounts of flag-tagged ATM or ATR in the different lanes was confirmed by immunoblotting with anti-flag antibody. In some reactions, either supercoiled DNA (pBluescript II KS, Stratagene) or linearized DNA (pBluescript II KS cut with EcoR1) was added ([…]). For endogenous ATM kinase reactions, endogenous ATM was immunoprecipitated from GM0536 lymphhoblasts with ATM monoclonal antibody (D16.11) in M buffer (PBS, 10% glycerol, 0.2% Tween 20, 0.3% NP-40, 1 mM NaF, 1 mM Na3VO4, 1 mM PMSF, 1x protease inhibitor mixture]. After washing with M buffer and kinase buffer, in vitro kinase reactions were carried out according to procedures described above. The DNA-PK in vitro kinase reaction was performed as previously described (Gottlieb and Jackson, 1993), using 20 ng each of DNA-PKcs or DNA-PK (20 ng DNA-PKcs premixed with 20 ng Ku 70/80).

- Relative Phosphorylation (%) ATR (ATR): 66%
- phosphorylation of GST-peptide substrate by ATM (in words) (ATM kinase): excellent in vitro substrate
- Relative Phosphorylation (%) ATM (ATM kinase): 78%
- Relative Phosphorylation (%) DNA-PK (DNA-PK): 10%
Molecule: 4EBP1 (Phas I): GST-peptide EPPMEASQSHLRNS (SEQ ID NO:9), S94 (also: GST fusion)

- effect of addition on ATR kinase activity (ATR; transfected flag-tagged ATR, GST-p53 (1-101) substrate): dependent
- effect of addition on activity of endogenous ATM (ATM kinase; endogenous ATM immunoprecipitated under mild conditions): dependent
- effect of addition on ATM kinase activity (ATM kinase; transfected flag-tagged ATM, GST-p53 (1-101) substrate): dependent
- effect of addition on DNA-PK activity (DNA-PK; purified DNA-PK, GST-p53 (1-101) substrate): not altered
Molecule: [Mn+2] [Mn^2+]

- Relative Phosphorylation (%) ATR (ATR): 55%
- Relative Phosphorylation (%) ATM (ATM kinase): 33%
- Relative Phosphorylation (%) DNA-PK (DNA-PK): 7%
Molecule: ATM S440: GST-peptide PLLMILSQLLPQQR (SEQ ID NO:24), S440 of ATM (also: GST fusion)

- Relative Phosphorylation (%) ATR (ATR): 22%
- Relative Phosphorylation (%) ATM (ATM kinase): 3%
- Relative Phosphorylation (%) DNA-PK (DNA-PK): <1%
Molecule: ATM S2761: GST-peptide YKVVPLSQRSGVLE (SEQ ID NO:25), S2761 of ATM (also: GST fusion)

- Relative Phosphorylation (%) ATR (ATR): 38%
- Relative Phosphorylation (%) ATM (ATM kinase): 2%
- Relative Phosphorylation (%) DNA-PK (DNA-PK): 6%
Molecule: BRCA1 (SQ1): GST-peptide SASLFSSQCSELED (SEQ ID NO:32), S1298 (also: GST fusion)

- Relative Phosphorylation (%) ATR (ATR): 35%
- Relative Phosphorylation (%) ATM (ATM kinase): 42%
- Relative Phosphorylation (%) DNA-PK (DNA-PK): 36%
Molecule: BRCA1 (SQ2): GST-peptide DCSGLSSQSDILTT (SEQ ID NO:33), S1387 (also: GST fusion)

- Relative Phosphorylation (%) ATR (ATR): 33%
- Relative Phosphorylation (%) ATM (ATM kinase): 8%
- Relative Phosphorylation (%) DNA-PK (DNA-PK): 12%
Molecule: BRCA1 (SQ3): GST-peptide SSEYPISQNPEGLS (SEQ ID NO:34), S1466 (also: GST fusion)

- phosphorylation of GST-peptide substrate by ATR (in words) (ATR; GST-conjugated 14 amino acid peptides): phosphorylated by ATR
- Relative Phosphorylation (%) ATR (ATR): 132%
- phosphorylation of GST-peptide substrate by ATM (in words) (ATM kinase): not by ATM
- Relative Phosphorylation (%) ATM (ATM kinase): <1%
- Relative Phosphorylation (%) DNA-PK (DNA-PK): <1%
Molecule: BRCA2: GST-peptide KVSPYLSQFQQDKQ (SEQ ID NO:29), S2156 (also: GST fusion)

- Relative Phosphorylation (%) ATR (ATR): 58%
- Relative Phosphorylation (%) ATM (ATM kinase): 14%
- Relative Phosphorylation (%) DNA-PK (DNA-PK): 2%
Molecule: CHK1 (SQ1): GST-peptide NVKYSSSQPEPRTG (SEQ ID NO:16), S317 (also: GST fusion)

- Relative Phosphorylation (%) ATR (ATR): 73%
- Relative Phosphorylation (%) ATM (ATM kinase): 11%
- Relative Phosphorylation (%) DNA-PK (DNA-PK): 20%
Molecule: CHK1 (SQ2): GST-peptide VQGISFSQPTCPDH (SEQ ID NO:17), S345 (also: GST fusion)

- Relative Phosphorylation (%) ATR (ATR): 20%
- Relative Phosphorylation (%) ATM (ATM kinase): 9%
- Relative Phosphorylation (%) DNA-PK (DNA-PK): 5%
Molecule: CUT1: GST-peptide GASPVLSQGVDPRS (SEQ ID NO:36), S1615 (also: GST fusion)

- Relative Phosphorylation (%) ATR (ATR): 12%
- Relative Phosphorylation (%) ATM (ATM kinase): 12%
- Relative Phosphorylation (%) DNA-PK (DNA-PK): 2%
Molecule: CtIP: GST-peptide DPGADLSQYKMDVT (SEQ ID NO:44), S664 (also: GST fusion)

- phosphorylation by ATM in vitro (in words) (ATM kinase): did not phosphorylate
Molecule: GST: glutathione S-transferase alone, control substrate [reference compound]

- Relative Phosphorylation (%) ATM (ATM kinase): <1%
Molecule: MRE11 (SQ4): GST-peptide SASRGGSQRGRAFK (SEQ ID NO:14), S590 (also: GST fusion)

- Relative Phosphorylation (%) ATM (ATM kinase): <1%
Molecule: MRE11 (SQ5): GST-peptide SSSKIMSQSQVSKG (SEQ ID NO:15), S648 (also: GST fusion)

- phosphorylation by ATR in vitro (in words) (ATR): not phosphorylated
- phosphorylation by ATM in vitro (in words) (ATM kinase): not phosphorylated
Molecule: full-length WRN protein: purified recombinant full-length WRN protein

- ATR/FRP-1 activity towards substrate, less than ATM (ATR; identical experimental conditions): at least 20 fold
- phosphorylation by ATM in vitro (in words) (ATM kinase): phosphorylated
Molecule: wt p53: recombinant glutathione S-transferase-conjugated p53 protein containing the first 101 amino acids of p53

- phosphorylation by ATR in vitro (in words) (ATR): not phosphorylated
- phosphorylation by ATM in vitro (in words) (ATM kinase): not phosphorylated
B1: GST-WRN (1099-1198): GST-linked WRN fragment, amino acids 1099-1198 (protein)
chain: STEKKSNLEKLYSYKPCDKISSGSNISKKSIMVQSPEKAYSSSQPVISAQEQETQIVLYGKLVEARQKHANKMDVPPAILATNKILVDMAKMRPTTVENV
modifications: left off: a dimerising Fc or GST

- phosphorylation by ATM in vitro (in words) (ATM kinase): good substrate
- phosphorylation by ATM in vitro (in words) (ATM kinase; listed as full-length 4E-BP 1): can phosphorylate
B2: PhasI/4E-BP1: full-length 4E-BP1 protein, translation regulator in insulin signaling (protein)
chain: SAGSSCSQTPSRAIPTRRVALGDGVQLPPGDYSTTPGGTLFSTTPGGTRIIYDRKFLMECRNSPVAKTPPKDLPTIPGVTSPTSDEPPMQASQSHLHSSPEDKRAGGEESQFEMDI

- phosphorylation by ATM in vitro (in words) (ATM kinase): excellent in vitro substrate
B3: GST-p95 (327-391): larger GST-p95 protein fragment, p95 amino acids 327-391, containing serine 343 (protein)
chain: GHPSTGLKTTTPGPSLSQGVSVDEKLMPSAPVNTTTYVADTESEQADTWDLSERPKEIKVSKMEQ
modifications: also: GST fusion

From patent US6348311B1, “ATM kinase modulation for screening and therapies” (St. Jude Childre's Research Hospital, priority 1999, dated 2002)
